Data from US20120190819A1 (MEDICAL RESEARCH COUNCIL, published 2012).
Positions count from the first letter of the chain named.

B1: STM peptide aptamer 01 (designed binder)
chain: MIPWGLSEAKPATPEIQEIVDKVKPQLEEKTNETYGKLEAVQYKTQVDAGTNYYIKVRAGDNKYMHLKVFNGPVPNKPLPALPVIGPGVNKPLPALPAHGPIRNKPLPSLPASGPPGQNEDLVLTGYQVDKNKDDELTGF
notes: Insert (with its GP ends) constrained in STM
B2: wild type Stefin A (human, recombinant) (other)
chain: MIPGGLSEAKPATPEIQEIVDKVKPQLEEKTNETYGKLEAVQYKTQVVAGTNYYIKVRAGDNKYMHLKVFKSLPGQNEDLVLTGYQVDKNKDDELTGF
notes: Expressed in E. coli from pET30a(+) with a hexa-histidine tag; also called SteA; Cystatin A
B3: Apt40 (peptide aptamer 040 in truncated STM) (designed binder)
chain: MIPWGLSEAKPATPEIQEIVDKVKPQLEEKTNETYGKLEAVQYKTQVDAGTNYYIKVRAGDNKYMHLKVFNGPVENKPLPALPAVGP
notes: Truncated by a frame-shift and an out-of-frame stop codon
B4: Apt34 (peptide aptamer 034 in truncated STM) (designed binder)
chain: MIPWGLSEAKPATPEIQEIVDKVKPQLEEKTNETYGKLEAVQYKTQVDAGTNYYIKVRAGDNKYMHLKVFNGPSVNKPLPSLPSLPVYGP
notes: as for B3
B5: STM peptide aptamer 09 (designed binder)
chain: MIPWGLSEAKPATPEIQEIVDKVKPQLEEKTNETYGKLEAVQYKTQVDAGTNYYIKVRAGDNKYMHLKVFNGPMLNKPLPSLPVGGPGLNKPLPSLPAAGPPGQNEDLVLTGYQVDKNKDDELTGF
notes: as for B1
B6: STM peptide aptamer 10 (designed binder)
chain: B5 chain with M74I, S81A, V84L, G85R, G88D, L89P, K91R, S95A, A98V, A99T
notes: as for B1
B7: STM peptide aptamer 02 (designed binder)
chain: B5 chain with M74V, G85M, G88T, L89P, S95P
notes: as for B1
B8: STM peptide aptamer 13 (designed binder)
chain: B5 chain with M74Y, V84L, G85C, G88S, L89V, K91R, S95A, A98D, A99V
notes: as for B1
B9: STM peptide aptamer 08 (designed binder)
chain: B5 chain with M74D, L75P, K77R, G85T, G88Y, S95A, A98V, A99S
notes: as for B1
B10: STM peptide aptamer 04 (designed binder)
chain: B5 chain with M74Y, K77R, V84A, G85Y, G88W, L89V, K91R, A98L, A99S
notes: as for B1
B11: STM peptide aptamer 06 (designed binder)
chain: B5 chain with M74V, L75V, G85K, G88D, L89V, A99V
notes: as for B1
B12: STM peptide aptamer 11 (designed binder)
chain: B5 chain with M74F, L75P, S81A, V84L, G85T, G88V, K91R, S95P, A98R, A99N
notes: as for B1
B13: STM peptide aptamer 07 (designed binder)
chain: B5 chain with M74P, L75N, N76V, S81A, V84L, G85M, G88L, S95A, A98L, A99D
notes: as for B1
B14: STM peptide aptamer 17 (designed binder)
chain: B5 chain with M74E, L75P, S81A, V84L, G85T, G88V, K91R, S95P, A98R, A99N
notes: as for B1
B15: STM peptide aptamer 20 (designed binder)
chain: B5 chain with M74R, L75M, V84L, G88A, L89M, S95A, A98L, A99Q
notes: as for B1
B16: AptA (peptide aptamer A in truncated STM) (designed binder)
chain: MIPWGLSEAKPATPEIQEIVDKVKPQLEEKTNETYGKLEAVQYKTQVDAGTNYYIKVRAGDNKYMHLKVFNGPRLNKPLPSLPV
notes: Scaffold ends at the in-frame stop codon after the 11mer (unconstrained C-terminal peptide); also called PepA; pepA
B17: AptA* (AptA with the two prolines of the PxxP motif changed to alanines) (designed binder)
chain: B16 chain with P80A, P83A
notes: also called AptA PP/AA; AxxA mutation of AptA
B18: Apt32 (peptide aptamer 032 in truncated STM) (designed binder)
chain: B16 chain with R74L, L75P, V84L
notes: Scaffold ends at the in-frame stop codon after the 11mer; also called Pep32
B19: Apt124 (peptide aptamer 124 in truncated STM) (designed binder)
chain: B16 chain with L75G, S81A, V84L
notes: Scaffold ends at the in-frame stop codon after the 11mer
B20: control peptide aptamer RLNKPLPSLPVG* (truncated STM) (designed binder)
chain: MIPWGLSEAKPATPEIQEIVDKVKPQLEEKTNETYGKLEAVQYKTQVDAGTNYYIKVRAGDNKYMHLKVFNGPRLNKPLPSLPVG
notes: Ends at a stop codon after the added G (unconstrained control)
B21: STM peptide aptamer 03 (designed binder)
chain: MIPWGLSEAKPATPEIQEIVDKVKPQLEEKTNETYGKLEAVQYKTQVDAGTNYYIKVRAGDNKYMHLKVFNGPDLNKPLPALPVHGPPGQNEDLVLTGYQVDKNKDDELTGF
notes: Insert (with its GP ends) constrained in STM; also called Apt03
B22: re-constrained AptA, RLNKPLPSLPVV in full-length STM (designed binder)
chain: B21 chain with D74R, A81S, H85V
notes: Stop codon of AptA replaced, making a full-length aptamer constrained in STM
B23: re-constrained AptA, RLNKPLPSLPVY in full-length STM (designed binder)
chain: B21 chain with D74R, A81S, H85Y
notes: as for B22
B24: re-constrained AptA, RLNKPLPSLPVT in full-length STM (designed binder)
chain: B21 chain with D74R, A81S, H85T
notes: as for B22
B25: re-constrained AptA, RLNKPLPSLPVS in full-length STM (designed binder)
chain: B21 chain with D74R, A81S, H85S
notes: as for B22
B26: re-constrained AptA, RLNKPLPSLPVW in full-length STM (designed binder)
chain: B21 chain with D74R, A81S, H85W
notes: as for B22
B27: STM peptide aptamer 05 (designed binder)
chain: B21 chain with D74N, H85L
notes: Insert (with its GP ends) constrained in STM; also called Apt05; Pep05
B28: Apt94 (peptide aptamer 094 in truncated STM) (designed binder)
chain: MIPWGLSEAKPATPEIQEIVDKVKPQLEEKTNETYGKLEAVQYKTQVDAGTNYYIKVRAGDNKYMHLKVFNGPANKPLPALPALGSAVE
notes: as for B3

Assays:
[1] = molecular target: T1, SH3 domain of yeast Sho1p (yeast two-hybrid bait, pEG202-Sho1-SH3) (yeast, UniProt P40073 300-367, limits assumed); test: yeast two-hybrid screen, confirmed by interaction mating
T1 construct: domain: SH3 domain; also called Sho1p SH3 domain
T1 sequence (P40073 300-367 limits assumed): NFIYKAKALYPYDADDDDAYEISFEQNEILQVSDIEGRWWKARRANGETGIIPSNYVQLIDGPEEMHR
Source text: (§1) Degenerate oligonucleotide cassettes were made by annealing and amplifying P20 and P21 encoding a biased library designed around the Pbs2p proline rich sequence ([…]) (SEQ ID NO: 33) that interacts with the SH3 domain of Sho1p. Translation of the cassette gives X(L/V/P/A)N(K/R)PLP(P/S/A)LP(L/V/P/A)X (SEQ ID NO: 34). At the DNA level, this oligonucleotide should give rise to a library with a theoretical complexity of 98,304. The cassette was ligated into STM pJG4-5, and grown up in XL10 Gold cells (Stratagene). The midi-prepped (Qiagen) DNA was used to create a yeast library of 6×10⁴ cells in EGY48, theoretically covering 60% of the sequences encoded by the library. These cells were mated with EGY42 cells carrying pEG202-Sho1-SH3, made as described above. Interactors were selected on -UHTL/X-Gal/Gal-Raff plates for 4 days, picked and the plasmids rescued into E. coli KC8 cells. The plasmids were transformed back into EGY48 to confirm interaction with the SH3 domain of Sho1p in EGY42 using an interaction-mating matrix.

[2] = molecular target: the molecule itself; test: gel filtration (self-association, domain-swapped dimer)
Description: To confirm that the engineered scaffold was correctly folded, we used gel filtration chromatography to ask whether we could detect any denatured or dimerized STM in its native form. Recombinant STM AU1 migrated close to its predicted size and similarly to wild type SteA (FIG. 3, panel A). When the protein preparations were heated to 75° C. before gel filtration, a proportion of SteA migrated as a dimer. […] The CD spectra of native SteA at 25° C. and 50° C. and native STM AU1 at 25° C. and 50° C.

[3] = molecular target: T1, SH3 domain of yeast Sho1p (yeast …); test: yeast two-hybrid screen
Source text: as §1

[4] = molecular target: T1, SH3 domain of yeast Sho1p (yeast …); test: yeast two-hybrid interaction mating
Source text: The yeast genome encodes 25 proteins that between them comprise 28 SH3 domains. Each domain, or combination of domains, was cloned as a yeast two hybrid bait, and tested by interaction mating for its ability to recognise AptA. […] The SH3 domain of Bud14 is a self-activating bait, giving rise to a blue colour even when mated to an empty prey plasmid. […] AptA* is the mutant version of AptA where the two proline residues of the PxxP motif have been changed to alanines (PP/AA). STM is the empty scaffold.

[5] = molecular target: T1, SH3 domain of yeast Sho1p (yeast …); test: yeast two-hybrid, Sho1-SH3 binding
Source text: We noted that other peptides containing a leucine at −5 (such as Apt03 and 05) were not inhibitory. Unlike AptA, these two peptide aptamers are constrained. To test the idea that constraint prevents the PPII helix of peptide aptamers such as Apt03 and 05 from productive interaction with Sho1 SH3, we replaced the C-terminal stop codon of AptA with codons encoding each amino acid residue in turn to make AptA a full-length peptide aptamer constrained in STM. After re-constraint, only one of the seven amino acid residues P, V, C, D, H, F and W at +5 allow binding to Sho1 SH3 in the context of a constrained protein (Table IV). This contrasts with the findings of Feng et al [Feng S, Chen J K, Yu H, Simon J A, Schreiber S L. 1994. Two binding orientations for peptides to the Src SH3 domain: development of a general model for SH3-ligand interactions. Science. 266: 1241-7] and Rickles et al [Rickles R J, Botfield M C, Zhou X M, Henry P A, Brugge J S, Zoller M J. 1995. Phage display selection of ligand residues important for Src homology 3 domain binding specificity. Proc Natl Acad Sci USA. […] In addition, none of the constrained AptA variants show the ability to inhibit Pbs2-Hog1 activation (Table IV). […] They further indicate that in the context of STM, the presence of one of the 7 permissive residues at position +5 either allows the formation of a left handed type II polyproline helix or allows interaction at a surface on Sho1 distinct from the SH3 domain.

Row | Binder | binding result [1] | also measured
1 | B1 | binds | 
2 | B2 |  | binding result [2]: binds
3 | B3 |  | binding result [3]: binds
4 | B4 |  | binding result [3]: binds
5 | B5 | binds | 
6 | B6 | binds | 
7 | B7 | binds | 
8 | B8 | binds | 
9 | B9 | binds | 
10 | B10 | binds | 
11 | B11 | binds | 
12 | B12 | binds | 
13 | B13 | binds | 
14 | B14 | binds | 
15 | B15 | binds | 
16 | B16 |  | binding result [3]: binds
17 | B17 |  | binding result [4]: no binding
18 | B18 |  | binding result [3]: binds
19 | B19 |  | binding result [3]: binds
20 | B20 |  | binding result [5]: binds
21 | B21 | binds | 
22 | B22 |  | binding result [5]: binds
23 | B23 |  | binding result [5]: no binding
24 | B24 |  | binding result [5]: no binding
25 | B25 |  | binding result [5]: no binding
26 | B26 |  | binding result [5]: binds
27 | B27 | binds | 
28 | B28 |  | binding result [3]: binds
